Assay [1] relates to APP751sw processing in HEK293T cells. The assay can be described thus: co-transfection with APP751sw in HEK293T cells, ELISA of conditioned medium. The class given is cell-based, human. As to the method:
Expression vectors containing BACE and BACE2 cDNAs were transfected into HEK293T cells in the presence of APP751sw or CT100 (Shoji et al., Science 258: 126-129 [1992]; Lichtenthaler et al., Proc. Natl. Acad. Sci. USA 96: 3053-3058 [1999]). Transfections were performed in 24 well plates using Lipofectamine Plus (Gibco/BRL, Bethesda, Md.) and DNA concentrations were kept constant by including non-specific DNA. Expression plasmids were tested for BACE and BACE2 expression by Western blotting. Cell culture supernatants were collected 48 hours and 72 hours post-transfection, and assayed for α-NTF, β-NTF and Aβ formation. β-NTF measurement was performed as described below. α-NTF was captured like β-NTF but was detected with biotinylated 2H3 (Johnson-Wood et al., Proc. Nati. Acad. Sci. USA 94: 1550-1555 [1997]). Aβ levels were determined by an ELISA using monoclonal antibodies 266 for capture and biotinylated 3D6 for detection (see Johnson-Wood et al., [1997] ibid for antibody epitope description). Aβ42, in contrast, was captured using 21F 12 and detected with biotinylated 3D6. Cell extracts prepared 72 hour post-transfection were separated by SDS-PAGE (Novex) and probed with CT695 (Zymed) for APP and CTFs as well as with an Aβ specific monoclonal antibody WO2 (kindly provided by K. Beyreuther; Ida et al., J. Biol. Chem. 271: 22908-22914 [1996]). Alternatively, co-transfection experiments using APP751sw and BACE or BACE2 were performed in the human neuroblastoma cell line, SK-N-MC, available from the American Type Culture Collection (ATCC).
Given the ability of BACE2 to cleave APP at the β-secretase site in vitro, we investigated the role of BACE2 in HEK293T cells relative to BACE. Variable amounts of BACE2 or BACE expression plasmids were co-transfected with constant amount of DNA encoding APP751sw substrate cDNA. Cell supernatants were collected 48 hours or 72 hours post-transfection and analyzed for α-NTF, β-NTF, total Aβ and Aβ42 as described in Genenral Methodology. Expression of APP751 sw alone led to a significant increase in β-NTF, α-NTF, total Aβ and Aβ42 (FIGS. 2a-d) compared to mock-transfected cells. […] This was most likely due to the fact that overexpressed APP751sw was in excess and was already very efficiently cleaved by endogenous BACE (compare mock versus APP751 sw alone). BACE effects on Aβ formation have been reported to be variable (Vassar et al., [1999] ibid; Sinha et al,[1999] ibid; Hussain et al., [1999] ibid; Yan et al, [1999] ibid; Lin et al,[2000] ibid) and thus it appears that additional factors such as γ-secretase might become limiting.
In an independent experiment, we addressed whether BACE2 competed with the ability of BACE to cleave APP at the β-secretase site. HEK293T cells were co-transfected with constant amounts of APP751sw and BACE, and increasing levels of BACE2. β-NTF and Aβ levels were then measured in culture supernatant (FIG. 3). […] BACE and BACE2 appeared to compete for the substrate and thus the effect on β-NTF might rather be steric. In particular, if BACE2 is a less efficient β-secretase in competing with BACE for substrate, it would reduce the overall β-secretase cleavage efficiency (see also FIG. 4). However, this reduction is insufficient to account for the Aβ reduction with BACE2.
A general note: In an ELISA, binding on a coated surface is turned into a signal by an enzyme label.

Assay [2] has as its system APP751sw. Kind of assay: cell-free β-secretase assay, β-NTF ELISA, APP751sw substrate. Particulars: membrane extracts of transfected HEK293 cells, pH 4.5, 37° C. The format is biochemical, human. On the procedure: The β-secretase assay consists of two different parts, an incubation or reaction phase to generate β-NTF and an ELISA part to capture and measure the β-NTF generated by β-secretase. The β-secretase ELISA was performed as follows. Each well of a 96 well plate containing a flat bottom (high protein binding, Corning, N.Y.) was coated with 100 μl of the monoclonal capture antibody 8E5 (at ˜8-10 μg/ml) (Johnson-Wood et al. Proc. Natl. Acad. Sci. USA 94: 1550-1555 [1997]). The plate was then covered with parafilm and incubated overnight at 4° C. or alternatively for 2 hours at 37° C. […]
One hundred μl of a 1:5000 dilution of a goat anti rabbit IgG-HRP in Antibody-Conjugate Buffer was then added to each well, and the plate incubated at room temperature for one hour. […] After sufficient blue color had developed, the reactions were stopped by adding 100 μl of 5N H2SO4 to each well, and the amount of βNTF was determined by reading the plate at 450 nm in a Softmax spectrophotometer.
Equal amounts of membrane extracts from either mock, BACE or BACE2 transfected HEK293 cells were incubated with partially purified full length APP751 sw or APP751wt for the indicated times. The formation of β-NTF was then determined using the respective β-NTF specific ELISA as described in General Methodology.

B1: BACE2 D110A: single D110A BACE2 mutant of a critical aspartate residue, made by site-directed mutagenesis (protein)
chain: ALEPALASPAGAANFLAMVDNLQGDSGRGYYLEMLIGTPPQKLQILVATGSSNFAVAGTPHSYIDTYFDTERSSTYRSKGFDVTVKYTQGSWTGFVGEDLVTIPKGFNTSFLVNIATIFESENFFLPGIKWNGILGLAYATLAKPSSSLETFFDSLVTQANIPNVFSMQMCGAGLPVAGSGTNGGSLVLGGIEPSLYKGDIWYTPIKEEWYYQIEILKLEIGGQSLNLDCREYNADKAIVDSGTTLLRLPQKVFDAVVEAVARASLIPEFSDGFWTGSQLACWTNSETPWSYFPKISIYLRDENSSRSFRITILPQLYIQPMMGAGLNYECYRFGISPSTNALVIGATVMEGFYVIFDRAQKRVGFAASPCAEIAGAAVSEISGPFSTEDVASNCVPAQSLSEPILWIVSYALMSVCGAILLVLIVLLLLPFRCQRRPRDPEVVNDESSLVRHRWK
Turning to B1, in assay [1] (co-transfected with APP751sw or CT100), the “Aβ production (total Aβ, Aβ42) with aspartate mutant” value is listed as “clearly reversed the suppression of Aβ production”. The “β-NTF formation in the presence of co-transfected BACE” value in assay [1] (constant APP751sw and BACE) is “compete as well if not slightly more effectively with BACE to form β-NTF”. Also, in assay [2], the “β-NTF formation (β-secretase cleavage in vitro)” value was “lost their ability to cleave at the β-secretase site in vitro”.

B2: BACE2: human aspartyl protease, close homolog of BACE (SEQ ID NO: 2), expressed from pcDNA3.1(−)/BACE2 in transfected cells (protein)
chain: MGALARALLLPLLAQWLLRAAPELAPAPFTLPLRVAAATNRVVAPTPGPGTPAERHADGLALALEPALASPAGAANFLAMVDNLQGDSGRGYYLEMLIGTPPQKLQILVDTGSSNFAVAGTPHSYIDTYFDTERSSTYRSKGFDVTVKYTQGSWTGFVGEDLVTIPKGFNTSFLVNIATIFESENFFLPGIKWNGILGLAYATLAKPSSSLETFFDSLVTQANIPNVFSMQMCGAGLPVAGSGTNGGSLVLGGIEPSLYKGDIWYTPIKEEWYYQIEILKLEIGGQSLNLDCREYNADKAIVDSGTTLLRLPQKVFDAVVEAVARASLIPEFSDGFWTGSQLACWTNSETPWSYFPKISIYLRDENSSRSFRITILPQLYIQPMMGAGLNYECYRFGISPSTNALVIGATVMEGFYVIFDRAQKRVGFAASPCAEIAGAAVSEISGPFSTEDVASNCVPAQSLSEPILWIVSYALMSVCGAILLVLIVLLLLPFRCQRRPRDPEVVNDESSLVRHRWK
B2: in assay [1] (co-transfected with APP751sw), the “Aβ42 in conditioned medium” value is “striking reduction of total Aβ and Aβ42 to levels found in mock-transfected cells”; the “total Aβ in conditioned medium” value is “striking reduction of total Aβ and Aβ42 to levels found in mock-transfected cells”; the “α-NTF levels in conditioned medium” value is recorded as “slightly higher levels of α-NTF in conditioned medium from BACE2 versus BACE transfected cells”; the “β-NTF levels in conditioned medium” value is “the effect on β-NTF levels was very similar to that of BACE”. Moreover, in assay [1] (co-transfected with APP751sw, APP751sw alone ~2.59), the “total OD of α-NTF plus β-NTF” value is listed as approximately 2.5 OD. In addition, in assay [1] (constant APP751sw and BACE), the “β-NTF formation in the presence of co-transfected BACE” value is “reduced the ability of BACE to form β-NTF in a dose-dependent manner”. In addition, the “Aβ levels in the presence of co-transfected BACE” value in assay [1] (constant APP751sw and BACE, increasing BACE2) is given as “dramatic dose-dependent reduction in Aβ levels”. For the same molecule, the “β-NTF formation (β-secretase cleavage in vitro)” value in assay [2] is “time-dependent increase in β-NTF formation”.

The record behind these values is patent US6713276B2, “Modulation of Aβ levels by β-secretase BACE2” (Scios, Inc., priority 2000, dated 2004).
